{"source": "paper PMC5647421", "about": "“Hetero-oligomer of dynamin-related proteins participates in the fission of highly divergent mitochondria from Entamoeba histolytica” (Scientific Reports, 2017)", "target": "T1, EhDrpA (endogenous) (Entamoeba histolytica (endogenous in …, UniProt C4LX84 1-682))", "T1 construct": "Entamoeba histolytica dynamin-related protein A (EhDrpA, earlier named EhDlp1), XP_649650; also called endogenous EhDrpA; native EhDrpA; source: endogenous, E. histolytica trophozoite whole cell lysate", "T1 sequence (looked up)": "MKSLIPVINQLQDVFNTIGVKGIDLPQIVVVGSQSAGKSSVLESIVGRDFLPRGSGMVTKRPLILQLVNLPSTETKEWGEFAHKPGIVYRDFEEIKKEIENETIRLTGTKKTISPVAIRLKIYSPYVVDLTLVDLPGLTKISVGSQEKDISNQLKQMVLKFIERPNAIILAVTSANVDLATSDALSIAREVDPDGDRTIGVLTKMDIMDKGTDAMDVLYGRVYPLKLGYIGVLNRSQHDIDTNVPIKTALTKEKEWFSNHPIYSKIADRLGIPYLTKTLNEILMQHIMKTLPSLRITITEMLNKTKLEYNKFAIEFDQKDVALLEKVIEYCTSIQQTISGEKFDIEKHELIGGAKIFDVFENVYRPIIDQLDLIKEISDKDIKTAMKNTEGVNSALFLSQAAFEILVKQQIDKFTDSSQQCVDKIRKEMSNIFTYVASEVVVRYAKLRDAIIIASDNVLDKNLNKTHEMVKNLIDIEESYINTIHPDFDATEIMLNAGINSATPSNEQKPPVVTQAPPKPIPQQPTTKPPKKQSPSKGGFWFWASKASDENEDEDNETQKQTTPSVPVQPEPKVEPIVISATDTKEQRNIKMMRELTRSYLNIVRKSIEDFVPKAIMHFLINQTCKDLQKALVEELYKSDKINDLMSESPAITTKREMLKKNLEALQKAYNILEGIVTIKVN", "assay": "co-IP; trophozoites of E. histolytica HM-1:IMSS cl6 wild type; immunoprecipitation by anti-DrpA or anti-DrpB antibodies; quantitative immunoblot with recombinant His6-EhDRP-HA proteins as standards", "conditions": "partners not purified", "note": "“And” between values parts separate entries of the source, which are not always exact repeats. Identical values can stand only once.", "data": [{"binder": "EhDrpB (endogenous) (natural protein, UniProt C4M3R5 1-663, looked up, Entamoeba histolytica dynamin-related protein B (EhDrpB), XP_651634; also called endogenous EhDrpB; native EhDrpB; source: endogenous, E. histolytica trophozoite whole cell lysate) MQRLIPVINSLQDVFTAAGLPNTLPLPQIVVVGSQSSGKSSVLEHVVGKDFLPRGSGIVTRRPLIVQCVRSNVAEDYGQFEHTGDRKFTDFGEIRNEITRETERTCPGRNVSSVPIRLRIYSSSVVDLTLVDLPGLVKVNINGQTAEMVKNLRDMVYEYASPSNALILAVTAGNIDIANSDALQVAKDVDPDGERTIGVLTKLDLEDKGTNSMDVLMGRVYPLKLGYIGVVNRSQQDINNGVDVKTSLRHEKEFFENHPVYCSIAERMGTEYMVNRLNVLLLQHIQKCLPGLKQQINQCYEKARSRYEDIKPDDENLLSLSLQQIMKFSGSFAAALNGTDTNIHTHEISGGAKIFSVFENNFRPTIDSQDILSGIKDVDILTAIKNASGTRPCLYVPQSAFENLISKQVRNFEGTCHNCVDNVYREMKVIVGKIAKDNIEKYDRFREALIQASTEVMNDYMTQTHKMVQDLIDIEADYINTSHPDFDTTKVLKEADEAMKTPQDGIDTIVTIDPNNTTNAQQYEAKKPVKSSFFAGQINKNQAKPQQQHVPKESITTSIRVDHTNQREMREINLIRNLCKDYLLIVRKSIKDLVPKAVIHFLVFKTRDSLQKELIKKLYNEALLQDLLAENPAIVNERKVVKQNLEALKKALDIINQVRDQCF", "values": [{"measurement": "stoichiometry N", "value": "2 EhDrpB per EhDrpA and 3 EhDrpB per EhDrpA"}]}]}
